Test: RP-HPLC insulin apparent solubility / percent recovery (content)
Conditions: 7 days at 2-8° C.
Description: Apparent solubility was measured as the percent insulin recovery as compared to the initial formulations/conditions.
Samples were prepared by withdrawing 100 μL from each vial at every time point and centrifuging prior to loading. Samples were stored in an autosampler at 4° C. prior to use, and were considered stable for 3 days after preparation. All samples were tested in duplicate.
For insulin, 20 μL was injected for each HPLC run.
To determine the apparent solubility, the peak area of insulin/insulin analog main peak and desamido peak were integrated and combined together to calculate the percentage relative to the standards. […] The data were processed using Design-Expert® 7.0 (StatEase) and the “historical data” feature. Insulin percent purity was expressed as the percent of main insulin versus all insulin species.

Substance: Regular Insulin: mature human insulin, SEQ ID NOS: 103 and 104
- Solubility of regular Insulin (0.2% methylparaben + […] m-cresol, pH 6.6, NaCl 50 mM): 15.3%
- Solubility of regular Insulin (0.2% methylparaben + […] m-cresol, pH 6.6, NaCl 80 mM): 9.0%
- Solubility of regular Insulin (0.2% methylparaben + […] m-cresol, pH 6.6, NaCl 140 mM): 5.8%
- Solubility of regular Insulin (0.2% methylparaben + […] m-cresol, pH 6.8, NaCl 50 mM): 34.1%
- Solubility of regular Insulin (0.2% methylparaben + […] m-cresol, pH 6.8, NaCl 110 mM): 11.4%
- Solubility of regular Insulin (0.2% methylparaben + […] m-cresol, pH 7.0, NaCl 50 mM): 86.9%
- Solubility of regular Insulin (0.2% methylparaben + […] m-cresol, pH 7.0, NaCl 80 mM): 46.6%
- Solubility of regular Insulin (0.2% methylparaben + […] m-cresol, pH 7.0, NaCl 140 mM): 15.9%
- Solubility of regular Insulin (0.2% methylparaben + […] m-cresol, pH 7.2, NaCl 80 mM): 90.6%
- Solubility of regular Insulin (0.2% methylparaben + […] m-cresol, pH 7.2, NaCl 110 mM): 47.1%
- Solubility of regular Insulin (0.2% methylparaben + […] m-cresol, pH 7.2, NaCl 140 mM): 32.9%
- Solubility of regular Insulin (0.2% methylparaben + […] m-cresol, pH 7.4, NaCl 50 mM): 98.1%
- Solubility of regular Insulin (0.2% methylparaben + […] m-cresol, pH 7.4, NaCl 80 mM): 97.7%
- Solubility of regular Insulin (0.2% methylparaben + […] m-cresol, pH 7.4, NaCl 110 mM): 94.6%
- Solubility of regular Insulin (0.2% methylparaben + […] m-cresol, pH 7.4, NaCl 140 mM): 59.1%
- Solubility of regular Insulin (0.2% methylparaben + […] m-cresol, pH 7.6, NaCl 50 mM): 98.1%
- Solubility of regular Insulin (0.2% methylparaben + […] m-cresol, pH 7.6, NaCl 80 mM): 97.9%
- Solubility of regular Insulin (0.2% methylparaben + […] m-cresol, pH 7.6, NaCl 140 mM): 95.4%
- Solubility of regular Insulin (0.2% phenol + […] m-cresol, pH 6.6, NaCl 50 mM): 26.8%
- Solubility of regular Insulin (0.2% phenol + […] m-cresol, pH 6.6, NaCl 80 mM): 8.7%
- Solubility of regular Insulin (0.2% phenol + […] m-cresol, pH 6.6, NaCl 110 mM): 6.5%
- Solubility of regular Insulin (0.2% phenol + […] m-cresol, pH 6.6, NaCl 140 mM): 5.8%
- Solubility of regular Insulin (0.2% phenol + […] m-cresol, pH 6.8, NaCl 50 mM): 38.4%
- Solubility of regular Insulin (0.2% phenol + […] m-cresol, pH 6.8, NaCl 80 mM): 17.1%
- Solubility of regular Insulin (0.2% phenol + […] m-cresol, pH 6.8, NaCl 140 mM): 6.5%
- Solubility of regular Insulin (0.2% phenol + […] m-cresol, pH 7.0, NaCl 50 mM): 100.3%
- Solubility of regular Insulin (0.2% phenol + […] m-cresol, pH 7.0, NaCl 80 mM): 35.7%
- Solubility of regular Insulin (0.2% phenol + […] m-cresol, pH 7.0, NaCl 110 mM): 17.7%
- Solubility of regular Insulin (0.2% phenol + […] m-cresol, pH 7.0, NaCl 140 mM): 11.6%
- Solubility of regular Insulin (0.2% phenol + […] m-cresol, pH 7.2, NaCl 80 mM): 92.2%
- Solubility of regular Insulin (0.2% phenol + […] m-cresol, pH 7.2, NaCl 110 mM): 37.4%
- Solubility of regular Insulin (0.2% phenol + […] m-cresol, pH 7.2, NaCl 140 mM): 18.9%
- Solubility of regular Insulin (0.2% phenol + […] m-cresol, pH 7.4, NaCl 80 mM): 99.2%
- Solubility of regular Insulin (0.2% phenol + […] m-cresol, pH 7.4, NaCl 110 mM): 87.8%
- Solubility of regular Insulin (0.2% phenol + […] m-cresol, pH 7.4, NaCl 140 mM): 40.6%
- Solubility of regular Insulin (0.2% phenol + […] m-cresol, pH 7.6, NaCl 80 mM): 99.2%
- Solubility of regular Insulin (0.2% phenol + […] m-cresol, pH 7.6, NaCl 110 mM): 98.5%
- Solubility of regular Insulin (0.2% phenol + […] m-cresol, pH 7.6, NaCl 140 mM): 82.2%
- Solubility of regular Insulin ([…] phenol + […] m-cresol, pH 6.6, NaCl 50 mM): 31.2%
- Solubility of regular Insulin ([…] phenol + […] m-cresol, pH 6.6, NaCl 80 mM): 18.6%
- Solubility of regular Insulin ([…] phenol + […] m-cresol, pH 6.6, NaCl 140 mM): 12.9%
- Solubility of regular Insulin ([…] phenol + […] m-cresol, pH 6.8, NaCl 50 mM): 66.6%
- Solubility of regular Insulin ([…] phenol + […] m-cresol, pH 6.8, NaCl 80 mM): 24.9%
- Solubility of regular Insulin ([…] phenol + […] m-cresol, pH 7.0, NaCl 50 mM): 96.7%
- Solubility of regular Insulin ([…] phenol + […] m-cresol, pH 7.0, NaCl 80 mM): 80.8%
- Solubility of regular Insulin ([…] phenol + […] m-cresol, pH 7.0, NaCl 110 mM): 32.9%
- Solubility of regular Insulin ([…] phenol + […] m-cresol, pH 7.0, NaCl 140 mM): 17.1%
- Solubility of regular Insulin ([…] phenol + […] m-cresol, pH 7.2, NaCl 80 mM): 96.4%
- Solubility of regular Insulin ([…] phenol + […] m-cresol, pH 7.2, NaCl 110 mM): 58.7%
- Solubility of regular Insulin ([…] phenol + […] m-cresol, pH 7.2, NaCl 140 mM): 33.1%
- Solubility of regular Insulin ([…] phenol + […] m-cresol, pH 7.4, NaCl 50 mM): 96.7%
- Solubility of regular Insulin ([…] phenol + […] m-cresol, pH 7.4, NaCl 80 mM): 97.3%
- Solubility of regular Insulin ([…] phenol + […] m-cresol, pH 7.4, NaCl 110 mM): 94.2%
- Solubility of regular Insulin ([…] phenol + […] m-cresol, pH 7.4, NaCl 140 mM): 57.9%
- Solubility of regular Insulin ([…] phenol + […] m-cresol, pH 7.6, NaCl 50 mM): 97.2%
- Solubility of regular Insulin ([…] phenol + […] m-cresol, pH 7.6, NaCl 80 mM): 97.1%
- Solubility of regular Insulin ([…] phenol + […] m-cresol, pH 7.6, NaCl 110 mM): 97.1%
- Solubility of regular Insulin ([…] phenol + […] m-cresol, pH 7.6, NaCl 140 mM): 91.7%
